Data on one compound can be found in publication PMC5481817, “Developing Targeted Hybrid Imaging Probes by Chelator Scaffolding” (Bioconjugate chemistry, 2017).

*1 amine or outer side, *2 acyl side, *3 side chain or, on linkers, in order; H or OH if unused. Where a SMILES comes first, the peptide text is derived from it. Bridges are numbered along the chain shown (N, C = ends). Roman numbers before positions name the chains, in order. [ ]: non-standard residue; d: D form. X1 = C/C1=C/C(=O)N(O)CCC[C@H](NC(=O)CCN2C(=O)CC([*:2])C2=O)C(=O)OCC/C(C)=C\C(=O)N(O)CCC[C@H](NC(=O)CCN2C(=O)CC([*:1])C2=O)C(=O)OCC/C(C)=C\C(=O)N(O)CCC[C@H](NC(=O)CCCCC[N+]2=C(C=CC3=CC(=CC=C4N(C)c5ccc(S(=O)(=O)[O-])cc5C4(C)C)CCC3)C(C)(C)c3cc(S(=O)(=O)O)ccc32)C(=O)OCC1; Mpa = O=C(O)CCS Bounds are passed on as bounds.

The nature of series [1]: in vitro. The conditions noted are these: human, serum. It counts as in vitro ADME, human. The protocol: (§1) [^68Ga]Sulfo-Cy7-FSC-MG and [^68Ga]Sulfo-Cy7-FSC-RGD (6 MBq) were diluted with phosphate buffered saline to a concentration of 1 μM. Subsequently 50 μL of this solution was added to six Eppendorf tubes containing 450 μL PBS and 500 μL octanol. The mixture was vortexed (1400 rpm) at RT for 15 min using a MS 3 basic vortexer (IKA, Staufen, Germany) followed by centrifugation for 2 min at 4500 rpm. Aliquots of 100 μL of both phases were transferred to plastic vials, measured in the γ-counter and logD values were calculated. For stability testing, radiolabeled tracers were diluted with 450 μL fresh human serum and 450 μL PBS as control to a concentration of 2 μM followed by incubation at 37 °C. After 1, 2, and 4 h (n = 3) 50 μL aliquots were precipitated with acetonitrile (1:1) and centrifuged for 2 min at 14 × 10^3 rpm. The supernatant was analyzed by radio-RP-HPLC to evaluate for decomposition and corresponding chromatograms are shown in Supporting Information. For protein binding measurement aliquots were analyzed by size exclusion chromatography using MicroSpin G-50 Columns (Sephadex G-50, GE Healthcare, Vienna, Austria) in triplicates. […] Column and eluate were measured in the γ-counter and percentages of nonprotein bound radiolabeled peptide (column) and protein bound radiotracer (eluate) were calculated.

A short description of series [2]: in vivo. The conditions noted are these: mouse. The protocol: All animal experiments were conducted in accordance with regulations and guidelines of the Czech Animal Protection Act (No. 246/1992), and with the approval of the Czech Ministry of Education, Youth, and Sports (MSMT-22421/2013–12), and the institutional Animal Welfare Committee of the Faculty of Medicine and Dentistry of Palacky University in Olomouc. The studies were performed using female 8–10-week-old athymic BALB/c nude mice (Envigo, Horst, The Netherlands). The number of animals was reduced as much as possible (n = 3 per group and time point for all experiments) and retro-orbital (r.o.) tracer injection as well as small animal imaging was carried out under 2% isoflurane anesthesia (FORANE, Abbott Laboratories, Abbott Park, IL, USA) to minimize animal suffering.
Tumor xenografts were established near the front shoulder of mice by subcutaneous injection of 5 × 10^6 cells (U-87 MG) or 2 × 10^6 cells (A431-CCK2R) and the same amount of A431-mock cells as a control in 200 μL appropriate medium and Matrigel (1:1). The tumors were allowed to grow until they had reached a volume of 0.2 to 0.5 cm^3. To evaluate ex vivo biodistribution mice were injected with 1–2 MBq (0.05–0.14 nmol) of radiotracer per mouse and mice were sacrificed by cervical dislocation after 30 and 90 min for [^68Ga]Sulfo-Cy7-FSC-RGD and after 1 and 2 h in the case of [^68Ga]Sulfo-Cy7-FSC-MG. Tumors, blood, muscle tissue, and organs were extracted, weighed, and activity uptake of the samples was measured in the gamma counter. Results were expressed as percentage of injected dose per gram tissue (% ID/g). In vivo PET and CT images were acquired with an Albira PET/SPECT/CT small animal imaging system (Bruker Biospin Corporation, Wood-bridge, CT, USA). Xenograft bearing mice were injected with radiolabeled peptides in a dose of ~5 MBq corresponding to 1–2 μg (0.25–0.58 nmol) of peptide per mouse. Anaesthetized animals were positioned prone head first in the Albira system before the start of imaging. Static PET/CT imaging was carried out 30 and 90 min p.i. for [^68Ga]Sulfo-Cy7-FSC-RGD. Animals injected with [^68Ga]Sulfo-Cy7-FSC-MG were imaged 1 and 2 h p.i. A 10 min PET scan (axial FOV 148 mm) was performed, followed by a CT scan (axial FOV 65 mm, 45 kVp, 400 μA, at 400 projections). Scans were reconstructed with the Albira software (Bruker Biospin Corporation, Woodbridge, CT, USA) using the maximum likelihood expectation maximization (MLEM) and filtered backprojection (FBP) algorithms. After reconstruction, acquired data was viewed and analyzed with PMOD software (PMOD Technologies Ltd., Zurich, Switzerland). 3D images were obtained using VolView software (Kitware, Clifton Park, NY, USA). Near-infrared in vivo fluorescence imaging was performed with an In-Vivo MS FX PRO small animal imaging system (Bruker Biospin Corporation, Woodbridge, CT, USA). Sulfo-Cy7-FSC-MG and Sulfo-Cy7-FSC-RGD were injected in a dose of 0.25–0.58 nmol per mouse and after supine head first positioning, imaging was conducted in various time intervals up to 72 h p.i. An appropriate filter set (excitation = 730 nm and emission = 790 nm) was used for acquiring the Sulfo-Cy7-FSC-peptide - fluorescence in vivo. Identical illumination settings (acquisition time = 15 s, filters = 730/790 nm, f-stop = 2.8, field of view = 100 mm, and binning = 4 × 4) were used for acquiring all images, and fluorescence emission was normalized to photons/s/mm^2. Images were acquired and analyzed using Bruker MI SE software (Bruker Biospin Corporation, Woodbridge, CT, USA).

Series [3] in a line: physchem. The format is physicochemical. The conditions noted are these: buffer or solvent. The method, then:
[^68Ga]Sulfo-Cy7-FSC-MG and [^68Ga]Sulfo-Cy7-FSC-RGD (6 MBq) were diluted with phosphate buffered saline to a concentration of 1 μM. Subsequently 50 μL of this solution was added to six Eppendorf tubes containing 450 μL PBS and 500 μL octanol. The mixture was vortexed (1400 rpm) at RT for 15 min using a MS 3 basic vortexer (IKA, Staufen, Germany) followed by centrifugation for 2 min at 4500 rpm. Aliquots of 100 μL of both phases were transferred to plastic vials, measured in the γ-counter and logD values were calculated. For stability testing, radiolabeled tracers were diluted with 450 μL fresh human serum and 450 μL PBS as control to a concentration of 2 μM followed by incubation at 37 °C. After 1, 2, and 4 h (n = 3) 50 μL aliquots were precipitated with acetonitrile (1:1) and centrifuged for 2 min at 14 × 10^3 rpm. The supernatant was analyzed by radio-RP-HPLC to evaluate for decomposition and corresponding chromatograms are shown in Supporting Information. For protein binding measurement aliquots were analyzed by size exclusion chromatography using MicroSpin G-50 Columns (Sephadex G-50, GE Healthcare, Vienna, Austria) in triplicates. First, the columns were centrifuged at 750 rcf for 1 min to remove the storage buffer. After adding 25 μL of incubation solution columns were centrifuged again for 2 min with 2000 rcf. Column and eluate were measured in the γ-counter and percentages of nonprotein bound radiolabeled peptide (column) and protein bound radiotracer (eluate) were calculated.

Series [4] is classed as physicochemical. The conditions noted are these: pH 7.4. The method, then:
as §1

Series [5] relates to A431-CCK2R/A431-mock tumor xenograft-bearing BALB/c nude mice. Nature of the series: Static micro-PET/CT imaging, A431-CCK2R/A431-mock xenografts. It counts as in vivo, mouse. The conditions noted are these: static PET, 60 and 120 min post-injection. The protocol:
All animal experiments were conducted in accordance with regulations and guidelines of the Czech Animal Protection Act (No. 246/1992), and with the approval of the Czech Ministry of Education, Youth, and Sports (MSMT-22421/2013–12), and the institutional Animal Welfare Committee of the Faculty of Medicine and Dentistry of Palacky University in Olomouc. The studies were performed using female 8–10-week-old athymic BALB/c nude mice (Envigo, Horst, The Netherlands). […]
Tumor xenografts were established near the front shoulder of mice by subcutaneous injection of 5 × 10^6 cells (U-87 MG) or 2 × 10^6 cells (A431-CCK2R) and the same amount of A431-mock cells as a control in 200 μL appropriate medium and Matrigel (1:1). […] Tumors, blood, muscle tissue, and organs were extracted, weighed, and activity uptake of the samples was measured in the gamma counter. Results were expressed as percentage of injected dose per gram tissue (% ID/g). […] After reconstruction, acquired data was viewed and analyzed with PMOD software (PMOD Technologies Ltd., Zurich, Switzerland). […] Near-infrared in vivo fluorescence imaging was performed with an In-Vivo MS FX PRO small animal imaging system (Bruker Biospin Corporation, Woodbridge, CT, USA). […] An appropriate filter set (excitation = 730 nm and emission = 790 nm) was used for acquiring the Sulfo-Cy7-FSC-peptide - fluorescence in vivo. […]

In series [6] the test system is A431-CCK2R cells. Nature of the series: CCK-2 receptor internalization assay (radioligand). It counts as cell-based, human. The conditions noted are these: for unspecific membrane bound amount: blocked with pentagastrin. The method, then:
To determine the receptor-mediated radioligand uptake A431-CCK2R cells were seeded into 12-well plates (Nunc, Thermo Scientific) with a density of 2 × 10^6 cells per well and left to grow overnight at 37 °C. At the day of the experiment each well was washed twice with fresh internalization medium (DMEM containing 1% fetal bovine serum) followed by the adjustment to a final volume of 1.2 mL with media. After dividing the plate into an unblocked and blocked compartment (6 wells each) 150 μL PBS/0.5% bovine serum albumin (BSA) solution or 150 μL blocking solution (100-fold molar excess of pentagastrin in PBS/0.5% BSA solution) were added and left for 10 min at room temperature. Hereafter, 150 μL of the radiolabeled peptide (1 nM [^68Ga]Sulfo-Cy7-FSC-MG in PBS/0.5% BSA approximately 3 × 10^4 cpm) was added to each well followed by incubation at 37 °C for 1 and 2 h, respectively. After removal of the supernatant each well was washed two times with 1 mL ice-cold internalization medium and supernatants were collected in plastic vials (wash fraction). For determination of the membrane bound radiotracer cells were incubated twice with 1 mL ice-cold 0.05 M glycine-buffer (pH 2.8) for 5 min collecting the supernatants. Finally, internalized fraction was obtained by lysing the cells with 1 mL of 2 M sodium hydroxide solution (NaOH) two times and collecting the samples. To determine the amount of radiotracer of each fraction all samples were taken for γ-counter measurement against standard solution, i.e., 150 μL radiotracer.

Consider `CSCC[C@H](NC(=O)[C@H](Cc1c[nH]c2ccccc12)NC(=O)CNC(=O)[C@H](Cc1ccc(O)cc1)NC(=O)[C@H](C)NC(=O)[C@@H](CCC(=O)O)NC(=O)CCSC1CC(=O)N(CCC(=O)N[C@H]2CCCN(O)C(=O)/C=C(/C)CCOC(=O)[C@@H](NC(=O)CCN3C(=O)CC(SCCC(=O)N[C@H](CCC(=O)O)C(=O)N[C@@H](C)C(=O)N[C@@H](Cc4ccc(O)cc4)C(=O)NCC(=O)N[C@@H](Cc4c[nH]c5ccccc45)C(=O)N[C@@H](CCSC)C(=O)N[C@@H](CC(=O)O)C(=O)N[C@@H](Cc4ccccc4)C(N)=O)C3=O)CCCN(O)C(=O)/C=C(/C)CCOC(=O)[C@@H](NC(=O)CCCCC[N+]3=C(C=CC4=CC(=CC=C5N(C)c6ccc(S(=O)(=O)[O-])cc6C5(C)C)CCC4)C(C)(C)c4cc(S(=O)(=O)O)ccc43)CCCN(O)C(=O)/C=C(/C)CCOC2=O)C1=O)C(=O)N[C@@H](CC(=O)O)C(=O)N[C@@H](Cc1ccccc1)C(N)=O` (stereo partly drawn) [[^68Ga]Sulfo-Cy7-FSC-MG, metal not drawn] (I: [Mpa][dE]AYGWMDF-NH2 / II: [Mpa][dE]AYGWMDF-NH2; linker I:1-II:1 via X1), for which, in series [1], the fraction unbound at 2 μM was under 0.3. For the same compound, in series [2] (female, athymic BALB/c nude, total radioactivity), the tissue to tissue ratio is under 0.5. Further, the tissue uptake at 2 h in series [2] (accumulation in kidneys) came out at 71.1 ± 7 %ID/g; in series [2] (accumulation in liver tissue), 25.7 ± 3.3 %ID/g; in series [2] (blood), 3 ± 0.5 %ID/g; in series [2] (tumor uptake) it was 3.8 ± 0.7 %ID/g. The tissue uptake at 1 h in series [2] (blood) is 4.7 ± 0.7 %ID/g; in series [2] (tumor uptake), 3.1 ± 0.9 %ID/g. Also, in series [3], the share remaining at 1 h, 2 μM was 95.1 ± 0.2%. In series [3], this compound yielded a share remaining at 2 h, 2 μM of 94.9 ± 0.4%. In addition, in series [3], the share remaining at 4 h, 2 μM was determined as 94.4 ± 0.1%. In series [4], this compound registered a logD of -1.9 ± 0.17. The PET target-to-organ contrast entry in series [5] is reported as “moderate target-to-organ contrast”. For the same compound, the internalized activity in series [6] (blocked with pentagastrin in 100-fold molar excess, 1 h) is 0.19 ± 0.1%; in series [6] (blocked with pentagastrin in 100-fold molar excess, 2 h), 0.44 ± 0.41%; in series [6] (unblocked, 1 h incubation), 4.56 ± 0.39 % of total activity; in series [6] (unblocked, 2 h incubation), 8.75 ± 1.32 % of total activity. For the same compound, the entries for the “unspecific membrane bound amount” value in series [6] (1 h) and in series [6] (2 h) were 0.13 ± 0.06% and 0.25 ± 0.23%, respectively. The “unspecific membrane bound amount of activity” value in series [6] (unblocked, 1 h) stood at 0.21 ± 0.08%; in series [6] (unblocked, 2 h) it was 0.31 ± 0.29%.
